Literature values as cited in paper PMC11266353, “Synthesis of a highly thermostable insulin by phenylalanine conjugation at B29 Lysine” (Communications Chemistry, 2024).

Parameters: method as in Protein J., 2023, 42, 383
Settings: ref Protein J., 2023, 42, 383

In the case of “Modified insulin: insulin analog reported in Protein J., 2023, 42, 383: tri-acetylated at Gly A1, Phe B1 and Lys B29”, the Melting temperature is given as 72.5 °C.
